Measured values as given in patent US20150079113A1.

Biological target: α5 integrin (endogenous) (mouse) (UniProt P11688)
Test: cell-based or functional assay

Chain of α5 integrin (endogenous) (mouse) (P11688 45-1053): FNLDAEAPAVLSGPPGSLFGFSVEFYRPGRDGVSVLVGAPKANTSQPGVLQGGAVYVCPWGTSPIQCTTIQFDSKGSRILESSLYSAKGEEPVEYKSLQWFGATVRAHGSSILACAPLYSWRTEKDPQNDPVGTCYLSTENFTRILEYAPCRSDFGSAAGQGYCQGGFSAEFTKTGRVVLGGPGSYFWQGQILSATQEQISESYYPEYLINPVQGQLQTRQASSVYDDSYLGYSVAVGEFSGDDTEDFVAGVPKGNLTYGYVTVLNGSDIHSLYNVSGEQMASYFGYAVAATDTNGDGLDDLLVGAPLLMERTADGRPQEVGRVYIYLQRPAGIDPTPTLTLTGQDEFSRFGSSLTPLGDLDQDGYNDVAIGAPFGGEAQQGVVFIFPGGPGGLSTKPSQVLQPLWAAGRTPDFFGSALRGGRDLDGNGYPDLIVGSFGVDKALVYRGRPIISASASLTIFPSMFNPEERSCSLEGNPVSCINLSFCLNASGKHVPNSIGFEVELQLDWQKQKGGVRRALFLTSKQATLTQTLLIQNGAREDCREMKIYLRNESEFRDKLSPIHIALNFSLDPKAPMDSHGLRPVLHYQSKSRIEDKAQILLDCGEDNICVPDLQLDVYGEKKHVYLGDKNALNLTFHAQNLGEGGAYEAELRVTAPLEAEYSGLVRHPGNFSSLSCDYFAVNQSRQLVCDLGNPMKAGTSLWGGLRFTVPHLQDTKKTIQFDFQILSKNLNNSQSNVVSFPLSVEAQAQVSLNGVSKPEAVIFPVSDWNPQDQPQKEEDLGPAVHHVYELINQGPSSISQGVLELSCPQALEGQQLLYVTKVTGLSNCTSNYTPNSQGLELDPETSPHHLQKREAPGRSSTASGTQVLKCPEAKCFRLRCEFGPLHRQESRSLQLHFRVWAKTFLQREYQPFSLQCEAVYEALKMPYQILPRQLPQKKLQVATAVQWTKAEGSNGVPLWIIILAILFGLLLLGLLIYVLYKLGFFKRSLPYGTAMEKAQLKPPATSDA

t1/2 of fluorescence recovery (FRAP) in nascent, peripheral adhesions, cells plated for 30 minutes on FN: 18.9 s
Substance: GFP-Mena (from UniProt Q03173 1-802)
